The assay has as its target endogenous pyruvate kinase M2 (PKM2) (human (endogenous in PLC/PRF/5, SMMC-7721, HCCLM3, Huh7)) (UniProt P14618). Nature of the assay: cross-linking.

Experimental findings from publication PMC9483790 are described below.

Sequence of endogenous pyruvate kinase M2 (PKM2), P14618 1-531 (enzyme; other documents disagree on this pair) (P14618 whole entry): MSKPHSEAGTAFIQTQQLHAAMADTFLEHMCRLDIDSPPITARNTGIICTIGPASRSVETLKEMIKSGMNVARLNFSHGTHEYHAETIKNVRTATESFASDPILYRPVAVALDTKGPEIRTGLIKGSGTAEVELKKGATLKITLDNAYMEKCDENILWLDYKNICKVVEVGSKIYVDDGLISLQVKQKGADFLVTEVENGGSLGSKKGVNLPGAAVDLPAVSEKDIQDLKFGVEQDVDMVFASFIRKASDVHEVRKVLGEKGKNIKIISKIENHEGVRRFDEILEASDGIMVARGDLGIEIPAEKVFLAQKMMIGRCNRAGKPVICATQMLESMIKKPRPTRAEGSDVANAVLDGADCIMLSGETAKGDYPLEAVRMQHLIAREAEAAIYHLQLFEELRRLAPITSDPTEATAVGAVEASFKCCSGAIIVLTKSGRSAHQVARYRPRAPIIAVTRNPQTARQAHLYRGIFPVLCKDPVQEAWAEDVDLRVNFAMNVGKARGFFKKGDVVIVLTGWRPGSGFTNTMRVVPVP

As usually defined, the stoichiometry N is the number of molecules, sites or subunits per partner or assembly. “endogenous pyruvate kinase M2 (PKM2), P14618 1-531 (enzyme; other documents disagree on this pair)” had a stoichiometry N of 2.
